# Experimental data published in patent EP2468767B1 (dated 2007).
# B1: IR485 (human insulin receptor residues 1-485 with enterokinase site and c-myc tag) (receptor)
# chain: HLYPGEVCPGMDIRNNLTRLHELENCSVIEGHLQILLMFKTRPEDFRDLSFPKLIMITDYLLLFRVYGLESLKDLFPNLTVIRGSRLFFNYALVIFEMVHLKELGLYNLMNITRGSVRIEKNNELCYLATIDWSRILDSVEDNYIVLNKDDNEECGDICPGTAKGKTNCPATVINGQFVERCWTHSHCQKVCPTICKSHGCTAEGLCCHSECLGNCSQPDDPTKCVACRNFYLDGRCVETCPPPYYHFQDWRCVNFSFCQDLHHKCKNSRRQGCHQYVIHNNKCIPECPSGYTMNSSNLLCTPCLGPCPKVCHLLEGEKTIDSVTSAQELRGCTVINGSLIINIRGGNNLAAELEANLGLIEEISGYLKIRRSYALVSLSFFRKLRLIRGETLEIGNYSFYALDNQNLRQLWDWSKHNLTITQGKLFFHYNPKLCLSEIHKMEEVSGTKGRQERNDIALKTNGDQASCENELLKFSYIRTSFDKISDDDDKEQKLISEEDLN
# Target: the molecule itself
# Experiment: gel filtration on Superdex 200 HR
protein,measurement,value
B1,binding result,binds
